T1: FcγRIIb extracellular domain with C-terminal His tag (human, UniProt P31994 43-217)
T1 construct: extracellular domain; Soluble receptor expressed in FreeStyle293 cells, used as analyte in Biacore; also called FcgRIIb; 2b; not shown: His tag attached to the C terminus
T1 sequence (looked up): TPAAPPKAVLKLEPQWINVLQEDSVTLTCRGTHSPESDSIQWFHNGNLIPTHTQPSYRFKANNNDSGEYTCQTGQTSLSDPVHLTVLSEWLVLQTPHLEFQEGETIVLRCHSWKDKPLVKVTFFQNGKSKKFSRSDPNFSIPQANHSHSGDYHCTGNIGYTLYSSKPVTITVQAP

B1: GpH7-A5/GpH7-B3 variant K334_20W/GpL16-k0 (heterodimerized antibody, He Ab) (antibody, human IgG1, kappa)
heavy 1: not shown
heavy 2: not shown
light: DIVMTQSPLSLPVTPGEPASISCQASESLVHSNRNTYLHWYLQKPGQSPQLLIYKVSNRFSGVPDRFSGSGSGTDFTLKISRVEAEDVGVYYCSQNTHVPPTFGQGTKVEIERTVAAPSVFIFPPSDEQLKSGTASVVCLLNNFYPREAKVQWKVDNALQSGNSQESVTEQDSKDSTYSLSSTLTLSKADYEKHKVYACEVTHQGLSSPVTKSFNRGEC
notes: Anti-glypican-3 IgG1 heterodimerized antibody; the alteration stands only in the GpH7-B3 chain; Positions in EU numbering; also called K334W
B2: GpH7-A5/GpH7-B3 variant (H268D)/GpL16-k0 (antibody, human IgG1, kappa)
heavy 1: not shown
heavy 2: not shown
light: B1 light
notes: also called H268_09D; He Ab
B3: GpH7-A5/GpH7-B3 variant (H268E)/GpL16-k0 (antibody, human IgG1, kappa)
heavy 1: not shown
heavy 2: not shown
light: B1 light
notes: also called H268_10E; He Ab
B4: GpH7-A5/GpH7-B3 variant (K326D)/GpL16-k0 (antibody, human IgG1, kappa)
heavy 1: not shown
heavy 2: not shown
light: B1 light
notes: also called K326_09D; He Ab
B5: GpH7-A5/GpH7-B3 variant (S298A)/GpL16-k0 (antibody, human IgG1, kappa)
heavy 1: not shown
heavy 2: not shown
light: B1 light
notes: also called S298_02A; GpH7-A5/GpH7-B3-15-02A/GpL16-k0
B6: GpH7-A5/GpH7-B3 variant (K334I)/GpL16-k0 (antibody, human IgG1, kappa)
heavy 1: not shown
heavy 2: not shown
light: B1 light
notes: also called K334_07I; He Ab
B7: GpH7-A5/GpH7-B3 variant (A330M)/GpL16-k0 (antibody, human IgG1, kappa)
heavy 1: not shown
heavy 2: not shown
light: B1 light
notes: also called A330_06M; He Ab
B8: GpH7-A5/GpH7-B3 variant (A330P)/GpL16-k0 (antibody, human IgG1, kappa)
heavy 1: not shown
heavy 2: not shown
light: B1 light
notes: also called A330_05P; He Ab
B9: GpH7-A5/GpH7-B3 variant (A330F)/GpL16-k0 (antibody, human IgG1, kappa)
heavy 1: not shown
heavy 2: not shown
light: B1 light
notes: also called A330_04F; He Ab
B10: GpH7-A5/GpH7-B3 variant (K334D)/GpL16-k0 (antibody, human IgG1, kappa)
heavy 1: not shown
heavy 2: not shown
light: B1 light
notes: also called K334_09D; He Ab
B11: GpH7-A5/GpH7-B3 variant (K326I)/GpL16-k0 (antibody, human IgG1, kappa)
heavy 1: not shown
heavy 2: not shown
light: B1 light
notes: also called K326_07I; He Ab
B12: GpH7-A5/GpH7-B3 variant (K326T)/GpL16-k0 (antibody, human IgG1, kappa)
heavy 1: not shown
heavy 2: not shown
light: B1 light
notes: also called K326_14T; He Ab
B13: GpH7-A5/GpH7-B3 variant (K334E)/GpL16-k0 (antibody, human IgG1, kappa)
heavy 1: not shown
heavy 2: not shown
light: B1 light
notes: also called K334_10E; He Ab
B14: GpH7-A5/GpH7-B3 variant (H268A)/GpL16-k0 (antibody, human IgG1, kappa)
heavy 1: not shown
heavy 2: not shown
light: B1 light
notes: also called H268_02A; He Ab

Each binder was assayed against T2, FcγRIIIa extracellular domain with C-terminal His tag (human, UniProt P08637 17-208) (assay: SPR (Biacore); ratio of He/Con_3a (FcγRIIIa) to He/Con_2b (FcγRIIb)).
T2 construct: extracellular domain; Soluble receptor expressed in FreeStyle293 cells, used as analyte in Biacore; also called FcgRIIIa; 3a; not shown: His tag attached to the C terminus
T2 sequence (P08637 17-208): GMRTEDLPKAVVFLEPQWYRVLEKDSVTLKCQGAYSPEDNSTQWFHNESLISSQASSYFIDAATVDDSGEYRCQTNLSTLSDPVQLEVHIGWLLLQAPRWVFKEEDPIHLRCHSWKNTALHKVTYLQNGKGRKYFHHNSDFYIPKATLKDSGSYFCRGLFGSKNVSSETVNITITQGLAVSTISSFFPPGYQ
Outline: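 Each FcγR was diluted in HBS-EP+ and injected at 25 °C over antibody held by an antigen-peptide sensor surface. Bound antibody was stripped with 10 mM glycine-HCl, pH 1.5, so chips could be reused.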

IIIa/IIb (He_3a/2b) | Binder
1.23 ratio | B1

Each binder was assayed against T3, FcgRIIIa F (human, UniProt P08637 17-208) (assay: SPR (Biacore); binding of the heterodimerized antibody relative to GpH7-A5/GpH7-B3/GpL16-k0 = 100).
T3 construct: extracellular domain; also called FcγRIIIa F; 3aF; not shown: His tag attached to the C terminus
T3 sequence (P08637 17-208): as above

He/Con_3aF | Binder
195 | B2
184 | B3
148 | B4
151 | B5
156 | B6
139 | B7
152 | B8
144 | B9
164 | B10
153 | B11
140 | B12
186 | B13
121 | B14

Each binder was assayed against T1, FcγRIIb extracellular domain with … (assay: SPR (Biacore), antibody captured via antigen peptide, FcγR as analyte; binding amount relative to control heterodimerized antibody).
Protocol: (§1) The heterodimerized antibodies He Abs in which one of the H chains was introduced with an alteration were assayed for their binding activities to each activating FcγR and inhibitory FcγR according to the method described in Example 4. […] The activating FcγRs in FIGS. 26, 27, 28, and 29 are FcγRIa, FcγRIIa (R), FcγRIIa (H), and FcγRIIIa, respectively.
(§2) Analysis of interaction between objective antibody and the FcγR was carried out using Biacore T100 (GE Healthcare). HBS-EP+ (GE Healthcare) was used as the running buffer, and the measurement temperature was set to 25° C. Chips produced by immobilizing the antigen peptide by the amine coupling method to a Series S Sencor Chip CM5 (GE Healthcare), or alternatively, chips produced by allowing preliminarily biotinylated antigen peptides to interact with and immobilize onto a Series S Sensor Chip SA (certified) (GE Healthcare) were used. Antibodies of interest were captured onto an antigen peptide-immobilized chip, and allowed to interact to each FcγR diluted with running buffer. To regenerate and repeatedly use the chip, the antibodies captured on the chip were washed off by reacting 10 mM glycine-HCl, pH 1.5.

He/Con_2b (IIb binding) | Binder
104 relative binding, GpH7-A5/GpH7-B3/GpL16-k0 = 100 | B1

These binders were tested against T2, FcγRIIIa extracellular domain with … in the same assay as above.
Protocol: as §1, §2

He/Con_3a (IIIa binding) | Binder
128 relative binding, GpH7-A5/GpH7-B3/GpL16-k0 = 100 | B1
